Values belong to the substance of their own block, whether it stands above or below them. Non-standard residues stand in square brackets, D forms with d. No end group written: not given here. *: point of attachment. Stearoyl = CCCCCCCCCCCCCCCCCC(=O)*; Palmitoyl = CCCCCCCCCCCCCCCC(=O)*; Nle = CCCC[C@H](N)C(=O)O; Aib = CC(C)(N)C(=O)O
How the values were obtained:
bovine LPL [1] = target: T1, bovine LPL (Bos taurus, UniProt P11151); assay: in vitro LPL assay using apoC-II deficient patient sera as substrate; format: biochemical; conditions: for LPL activation / TG hydrolysis: FIG. 52; for effect of lipidation on ability of C2thirdhelix to promote TG hydrolysis: FIG. 9; for promoting TG hydrolysis in the presence of LPL: FIG. 6
T1 sequence (P11151 29-478): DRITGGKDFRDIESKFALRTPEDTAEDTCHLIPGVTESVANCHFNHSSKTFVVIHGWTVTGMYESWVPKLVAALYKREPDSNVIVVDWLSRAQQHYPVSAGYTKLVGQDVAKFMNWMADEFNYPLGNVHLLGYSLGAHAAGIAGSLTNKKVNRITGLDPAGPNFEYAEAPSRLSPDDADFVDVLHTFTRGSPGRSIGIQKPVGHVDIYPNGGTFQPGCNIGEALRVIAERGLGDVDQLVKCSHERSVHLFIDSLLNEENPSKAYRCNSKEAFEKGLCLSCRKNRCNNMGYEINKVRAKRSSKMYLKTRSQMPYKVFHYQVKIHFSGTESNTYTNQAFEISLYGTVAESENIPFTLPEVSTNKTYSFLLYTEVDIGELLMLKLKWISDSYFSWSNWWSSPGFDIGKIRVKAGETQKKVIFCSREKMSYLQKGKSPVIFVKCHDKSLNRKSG
Experimental: (§1) Preparation of LPL: frozen stock of 10 μL of 0.5 mg/mL bovine LPL was used and diluted 1:100 (10 μL+990 μL of PBS).
Preparation of 20% Intralipid: 2000 mg/dL TG Intralipid was used to prepare 3 mg/dL TG Intralipid by diluting 1.5 μL of the stock with 998.5 μL PBS, or by diluting the stock 1:10 first and then mixing 15 μL of the diluted stock with 985 μL PBS. When apoC-II deficient human serum was used as a substrate, a frozen 10 μL aliquot of 1711 mg/dL (TG) was diluted by adding 990 μL PBS (1:100 dilution).
(§2) Preparation of free fatty acid (NEFA) assay: NEFA reagents were purchased from Wako Diagnostics, Wako Life Sciences, Inc. Reagent A was prepared by mixing Coloring Reagent A with Solvent A (225 μL per well). Reagent B was prepared by mixing Coloring Reagent B with Solvent B (75 μL per well). 5 nmoL oleic acid standard was prepared by diluting 20 μL of 1 mM oleic acid stock (WAKO NEFA standard solution) with 180 μL of 0.2% BSA.
(§3) LPL activity assay: 10 μL of Intralipid, human plasma sample, or mouse plasma sample was added in each well using repeater pipette. 10 μL (or 15 μL in the wells with no LPL control) of PBS and 10 μL of 1% BSA was added in each well using repeater pipette. 10 μL of peptides were added to corresponding wells in vertical triplicates (lowest concentration is on a left, highest is on the right). The plate was spun down at 1000 RPM for 10 seconds to mix and to remove the solutions from the wall of each well. The plate was put on ice and 5 μL of LPL was added using repeater pipette. The plate was spun down again at 1000 RPM for 10 seconds. The plate was covered and put back on ice for an incubation of 30 min. The plate was then moved to 37° C. and incubated for 1 hour.
(§4) Free fatty acids (NEFA) assay: 45 μL of 5 nmoL standard and 0 nmoL control (0.2% BSA) were added to corresponding wells. 225 μL of reagent A was added in each well using the reagent tray and 12-channel pipette. The plate was incubated for 10 min before 75 μL of reagent B was added to each well using the reagent tray and 12-channel pipette. The plate was not covered due to the high volume. The absorbance at 550 nm and 660 nm was measured.

apoC-II knockout mice = assay: plasma lipids of apoC-II knockout mice after peptide injection; format: in vivo
Experimental: C57Bl/6 mice (wild-type), apoC-II knockout (apoC-II KO) mice, and apoC-III transgenic mice were used for in vivo study. The C57Bl/6 mice (wild-type) were purchased from Taconic Biosciences Inc. The apoC-II KO mice were created as described in Sakurai et al., J Pharmacol Exp Ther 356:341-353, 2016. The apoC-III transgenic mice were generated by overexpressing human apoC-III in C57Bl/6 mice. See Qu et al., J. Lipid Res. 48:1476-1487, 2007.
Mice were fasted overnight (approximately 12 hours) before the study and 6 hours during the study, the next day. The apoC-II mimetic peptides were synthetically produced and free of biological contamination (not available as FDA approved compounds/treatment). […] W.) administered either subcutaneous injection (S.Q. or S.C.), intraperitoneal injection (I.P.) or intravenous injection (I.V.) (in a sterile, pharmaceutical grade PBS solution at a volume ≤200 μL) as described in Sakurai et al., J Pharmacol Exp Ther 356:341-353, 2016.

[2] = tested on: VLDL isolated from human plasma; assay: ApoC-III displacement study in VLDL isolated from human plasma; format: binding; conditions: SDS PAGE
Experimental: VLDL or chylomicrons isolated from human plasma were incubated with an apoC-II mimetic peptide for 1 hour at 37° C. and washed 3 times with PBS using spin filter with 100 kDa cutoff membrane. […] ApoC-I, apoC-II, apoC-III, and apoE bands were identified by their corresponding size.

bovine LPL [3] = target: T1, bovine LPL; assay: in vitro LPL assay using hypertriglyceridemia patient sera as substrate; format: biochemical; conditions: patient sera TG about 1000 mg/dL to about 1700 mg/dL, FIGS. 15A-D
Experimental: as §1, §2, §3, §4

[4] = concentrations from 100 pM to 10 μM, FIG. 12
[5] = 0.25 μmol/kg of body weight intraperitoneal, FIG. 24

LPL activation / TG hydrolysis (bovine LPL [1]): activated LPL in vitro
Substance: DYLKEVAibEKLRDLYEKAibFPAVSTYTGIFTDQVLSVLKGEE (DYLKEV[Aib]EKLRDLYEK[Aib]FPAVSTYTGIFTDQVLSVLKGEE) [Delta6T18F-PV-AIB7,17]

Substance: C18AMSTYTGIFTDQVLSVLKGEE (Stearoyl-AMSTYTGIFTDQVLSVLKGEE) [C2thirdhelixStearylpos1]
effect of lipidation on ability of C2thirdhelix to promote TG hydrolysis (bovine LPL [1]): lipidation enhanced the ability of C2thirdhelix to promote TG hydrolysis

Substance: DYLKAVFEKLRDLYSKFFPAMSTYTGIFTDQVLSVLKGEE [Delta4b T18F]
TG hydrolysis (bovine LPL [1]; [4]): promoted TG hydrolysis in a dose-dependent manner

Substance: DYLKAVFEKKC18RDLYSKFTPAMSTYTGIFTDQVLSVLKGEE (DYLKAVFEKK(Stearoyl)RDLYSKFTPAMSTYTGIFTDQVLSVLKGEE) [Delta4b-2]
TG hydrolysis (bovine LPL [1]; [4]): promoted TG hydrolysis in a dose-dependent manner

Substance: DYLKEVFEKLRDLYEKFTAAnLSTYTGIFTDQVLSVLKGEENH2 (DYLKEVFEKLRDLYEKFTAA[Nle]STYTGIFTDQVLSVLKGEE-NH2; N-terminus assumed; SMILES CCCC[C@H](NC(=O)[C@H](C)NC(=O)[C@H](C)NC(=O)[C@@H](NC(=O)[C@H](Cc1ccccc1)NC(=O)[C@H](CCCCN)NC(=O)[C@H](CCC(=O)O)NC(=O)[C@H](Cc1ccc(O)cc1)NC(=O)[C@H](CC(C)C)NC(=O)[C@H](CC(=O)O)NC(=O)[C@H](CCCNC(=N)N)NC(=O)[C@H](CC(C)C)NC(=O)[C@H](CCCCN)NC(=O)[C@H](CCC(=O)O)NC(=O)[C@H](Cc1ccccc1)NC(=O)[C@@H](NC(=O)[C@H](CCC(=O)O)NC(=O)[C@H](CCCCN)NC(=O)[C@H](CC(C)C)NC(=O)[C@H](Cc1ccc(O)cc1)NC(=O)[C@@H](N)CC(=O)O)C(C)C)[C@@H](C)O)C(=O)N[C@@H](CO)C(=O)N[C@H](C(=O)N[C@@H](Cc1ccc(O)cc1)C(=O)N[C@H](C(=O)NCC(=O)N[C@H](C(=O)N[C@@H](Cc1ccccc1)C(=O)N[C@H](C(=O)N[C@@H](CC(=O)O)C(=O)N[C@@H](CCC(N)=O)C(=O)N[C@H](C(=O)N[C@@H](CC(C)C)C(=O)N[C@@H](CO)C(=O)N[C@H](C(=O)N[C@@H](CC(C)C)C(=O)N[C@@H](CCCCN)C(=O)NCC(=O)N[C@@H](CCC(=O)O)C(=O)N[C@@H](CCC(=O)O)C(N)=O)C(C)C)C(C)C)[C@@H](C)O)[C@@H](C)CC)[C@@H](C)O)[C@@H](C)O) [Delta6-NH]
plasma TG (apoC-II knockout mice; [5]): significant reduction of plasma TG | apoC-III displacement in VLDL [2]: capable of displacing apoC-III

Substance: C18DYLKAVFEKKC18RDLYSKFTAAnLSTYTGIFTDQVLSVLKGEE (Stearoyl-DYLKAVFEKK(Stearoyl)RDLYSKFTAA[Nle]STYTGIFTDQVLSVLKGEE) [bi-acyl-Delta4]
promoting TG hydrolysis in the presence of LPL (bovine LPL [1]): capable of promoting TG hydrolysis in the presence of LPL

LPL activation (bovine LPL [3]): activated LPL in vitro
Substance: DYLKEVFEKLRDLYEKFTAALSTYTGIFTDQVLSVLKGEE (not fully specified) [Delta6L]

Substance: AKC18STYTGIFTDQVLSVLKGEE (AK(Stearoyl)STYTGIFTDQVLSVLKGEE) [C2thirdhelixStearylpos2]
effect of lipidation on ability of C2thirdhelix to promote TG hydrolysis (bovine LPL [1]): lipidation enhanced the ability of C2thirdhelix to promote TG hydrolysis

Substance: C18DYLKAVFEKLRDLYSKFTAAnLSTYTGIFTDQVLSVLKGEE (Stearoyl-DYLKAVFEKLRDLYSKFTAA[Nle]STYTGIFTDQVLSVLKGEE) [mono-acyl-Delta4]
promoting TG hydrolysis in the presence of LPL (bovine LPL [1]): capable of promoting TG hydrolysis in the presence of LPL

TG hydrolysis (bovine LPL [1]; peptide concentrations from 10 pM to 100 μM, FIG. 13): promoted TG hydrolysis
Substance: DYLKAVFEKLRDLYSKFTAAKC16STYTGIFTDQVLSVLKGEE (DYLKAVFEKLRDLYSKFTAAK(Palmitoyl)STYTGIFTDQVLSVLKGEE) [Delta4c]

LPL activation / TG hydrolysis (bovine LPL [1]): activated LPL in vitro
Substance: DYLKEVFEKLRDLYEKFFPAVSTYTGIFTDQVLSVLKGEE [Delta6T18F-PV]
time of maximum reduction of plasma TG (apoC-II knockout mice; 0.1 μmol/kg intraperitoneally, after the peptide injection): about 6 hours | plasma TG (apoC-II knockout mice; 0.1 μmol/kg of body weight intraperitoneally, FIG. 53): rapid reduction of plasma TG

apoC-III displacement in VLDL [2]: capable of displacing apoC-III
Substance: DYLKEVFEKLRDLYEKKC18TAAnLSTYTGIFTDQVLSVLKGEE (DYLKEVFEKLRDLYEKK(Stearoyl)TAA[Nle]STYTGIFTDQVLSVLKGEE) [Delta6b-A]
plasma TG (apoC-II knockout mice; [5]): significant reduction of plasma TG

apoC-III displacement in VLDL [2]: capable of displacing apoC-III
Substance: DYLKEVFEKLRDLYEKKC18TPAnLSTYTGIFTDQVLSVLKGEE (DYLKEVFEKLRDLYEKK(Stearoyl)TPA[Nle]STYTGIFTDQVLSVLKGEE) [Delta6b-P]
plasma TG (apoC-II knockout mice; [5]): significant reduction of plasma TG

Substance: DYLKAVKC18EKLRDLYSKFTPAMSTYTGIFTDQVLSVLKGEE (DYLKAVK(Stearoyl)EKLRDLYSKFTPAMSTYTGIFTDQVLSVLKGEE) [Delta4b-1]
TG hydrolysis (bovine LPL [1]; [4]): promoted TG hydrolysis in a dose-dependent manner

Substance: DKVKEFLSEYWEKAKEFAPAVSTYTGIFTDQVLSVLKGEE [Delta13-31-PV]
LPL activation / TG hydrolysis (bovine LPL [1]): promoted TG hydrolysis in vitro in a dose-dependent manner

LPL activation (bovine LPL [3]): activated LPL in vitro
Substance: DYLKEVFEKLRDLYEKFTPALSTYTGIFTDQVLSVLKGEE [Delta6PL]

Substance: AMSTYTGIFTDQVLSVLKC18GEE (AMSTYTGIFTDQVLSVLK(Stearoyl)GEE) [C2thirdhelixStearylpos17]
effect of lipidation on ability of C2thirdhelix to promote TG hydrolysis (bovine LPL [1]): lipidation enhanced the ability of C2thirdhelix to promote TG hydrolysis
